The text below walks through data of patent publication US20230405046A1 (published 2023).

Numbering of substitutions follows the chain as printed.

Assay [1] has as its target T1, KRAS Q61H peptide on HLA-A*01:01 (human).
T1 peptide: ILDTAGHEEY
Kind of assay: IFNγ ELISPOT; peptide titration (1 µM to 0.1 nM) on HLA-A*01:01-transfected K562; full-length, on cells.

Assay [2] has as its target T2, MAGE-A3 peptide on HLA-A*01:01 (human).
T2 peptide: EVDPIGHLY
In words: cytokine release.

Assay [3] concerns the target T2, MAGE-A3 peptide on HLA-A*01:01. Kind of assay: multimer staining.
Assay [4] addresses T3, NY-ESO-1 peptide on HLA-B*35:03 (human).
T3 peptide: MPFATPMEA
In words: killing.

Assay [5] has as its target T4, NY-ESO-1 peptide on HLA-B*35:03 (human).
T4 peptide: MPFATPMEAEL
Kind of assay: killing.

Assay [6] deals with T5, NY-ESO-1 peptide on HLA-A*02:01 (human).
T5 peptide: SLLMWITQC
Kind of assay: killing.

In assay [7] the target is T6, MAGE-A3 peptide on HLA-DRB1*11:01 (human).
T6 peptide: TSYVKVLHHMVKISG
Kind of assay: cytokine release.

For assay [8], the target named is NY-ESO-1 peptide on HLA-B*40:01 (human). Kind of assay: killing.
For assay [9], the target named is T7, NY-ESO-1 peptide on HLA-C*03:04 (human).
T7 peptide: FATPMEAEL
In words: multimer staining.

Assay [10] deals with T8, MAGE-A3 peptide on HLA-DRB1*13:02 (human).
T8 peptide: TSYVKVLHHMVKISG
Kind of assay: cytokine release.

B1: TCRCD8-EL8-LM7 #1 (TCR, V domains shown)
Valpha: AQKITQTQPGMFVQEKEAVTLDCTYDTSDPSYGLFWYKQPSSGEMIFLIYQGSYDQQNATEGRYSLNFQKARKSANLVISASQLGDSAMYFCAMREGQDSSYKLIFGSGTRLLVRP
Vbeta: DSGVTQTPKHLITATGQRVTLRCSPRSGDLSVYWYQQSLDQGLQFLIQYYNGEERAKGNILERFSAQQFPDLHSELNLSSLELGDSALYFCASSVLGPNTEAFFGQGTRLTVV
For the molecule B1, the “minimal recognised peptide concentration” value in assay [1] stood at 10 nM.

B2: TCRCD8-C1-40-MA3 #1 (TCR, V domains shown)
Valpha: GQQLNQSPQSMFIQEGEDVSMNCTSSSIFNTWLWYKQEPGEGPVLLIALYKAGELTSNGRLTAQFGITRKDSFLNISASIPSDVGIYFCAGQLRYGGATNKLIFGTGTLLAVQP
Vbeta: B1 Vbeta with Q48H, L96G, P98A, N99S, T100Y, A102Q, F103Y, Q106P, V113T
With B2, the binding result in assay [2] is given as “recognises”.

B3: TCRCD8-MA3#7 (TCR, V domains shown)
Valpha: ELKVEQNPLFLSMQEGKNYTIYCNYSTTSDRLYWYRQDPGKSLESLFVLLSNGAVKQEGRLMASLDTKARLSTLHITAAVHDLSATYFCAEPNTDKLIFGTGTRLQVFP
Vbeta: DAMVIQNPRYQVTQFGKPVTLSCSQTLNHNVMYWYQQKSSQAPKLLFHYYDKDFNNEADTPDNFQSRRPNTSFCFLDIRSPGLGDTAMYLCATNYDRGYEQYFGPGTRLTVT
Regarding B3, in assay [3], the binding result is on record as “recognises”.

B4: TCRCD8-MA3#8 (TCR, V domains shown)
Valpha: QKEVEQNSGPLSVPEGAIASLNCTYSDRGSQSFFWYRQYSGKSPELIMFIYSNGDKEDGRFTAQLNKASQYVSLLIRDSQPSDSATYLCAVWATGNQFYFGTGTSLTVIP
Vbeta: B3 Vbeta with N94S, Y95F
With B4, the binding result in assay [3] is listed as “recognises”.

B5: TCRCD8-NY#101 (TCR, V domains shown)
Valpha: AQTVTQSQPEMSVQEAETVTLSCTYDTSESDYYLFWYKQPPSRQMILVIRQEAYKQQNATENRFSVNFQKAAKSFSLKISDSQLGDAAMYFCAYRSDAGGTSYGKLTFGQGTILTVHP
Vbeta: ETGVTQSPTHLIKTRGQQVTLRCSSQSGHNTVSWYQQALGQGPQFIFQYYREEENGRGNFPPRFSGLQFPNYSSELNVNALELDDSALYLCASSPRTGGAGNTIYFGEGSWLTVV
Regarding B5, the binding result in assay [4] was “recognises”.

B6: TCRCD8-NY#100 (TCR, V domains shown)
Valpha: SQQGEEDPQALSIQEGENATMNCSYKTSINNLQWYRQNSGRGLVHLILIRSNEREKHSGRLRVTLDTSKKSSSLLITASRAADTASYFCATDSNDYKLSFGAGTTVTVRA
Vbeta: GAGVSQSPRYKVTKRGQDVALRCDPISGHVSLYWYRQALGQGPEFLTYFNYEAQQDKSGLPNDRFSAERPEGSISTLTIQRTEQRDSAMYRCASSWGGELFFGEGSRLTVL
On to B6, for which the binding result in assay [5] is given as “recognises”.

B7: TCRCD8-EL28-NYE #2 (TCR, V domains shown)
Valpha: SQELEQSPQSLIVQEGKNLTINCTSSKTLYGLYWYKQKYGEGLIFLMMLQKGGEEKSHEKITAKLDEKKQQSSLHITASQPSHAGIYLCGADMLDYQKVTFGIGTKLQVIP
Vbeta: DAGVIQSPRHEVTEMGQEVTLRCKPISGHDYLFWYRQTMMRGLELLIYFNNNVPIDDSGMPEDRFSAKMPNASFSTLKIQPSEPRDSAVYFCASRRGGSEQYFGPGTRLTVT
For B7, in [6], the binding result was “recognises”.

B8: TCRCD8-NY#99 (TCR, V domains shown)
Valpha: KQEVTQIPAALSVPEGENLVLNCSFTDSAIYNLQWFRQDPGKGLTSLLLIQSSQREQTSGRLNASLDKSSGRSTLYIAASQPGDSATYLCAPNDYKLSFGAGTTVTVRA
Vbeta: KAGVTQTPRYLIKTRGQQVTLSCSPISGHRSVSWYQQTPGQGLQFLFEYFSETQRNKGNFPGRFSGRQFSNSRSEMNVSTLELGDSALYLCASSFSSDNEQFFGPGTRLTVL
Turning to B8, the binding result in assay [5] is “recognises”.

B9: TCRCD4-MA3#9 (TCR, V domains shown)
Valpha: GNSVTQMEGPVTLSEEAFLTINCTYTATGYPSLFWYVQYPGEGLQLLLKATKADDKGSNKGFEATYRKETTSFHLEKGSVQVSDSAVYFCALSDPNNQGGKLIFGQGTELSVKP
Vbeta: DTAVSQTPKYLVTQMGNDKSIKCEQNLGHDTMYWYKQDSKKFLKIMFSYNNKELIINETVPNRFSPKSPDKAHLNLHINSLELGDSAVYFCASSQVRGTTEAFFGQGTRLTVV
As to B9, in assay [7], the binding result was “recognises”.

B10: TCRCD8-EL8-LM7 #4 (TCR, V domains shown)
Valpha: AQKVTQAQTEISVVEKEDVTLDCVYETRDTTYYLFWYKQPPSGELVFLIRRNSFDEQNEISGRYSWNFQKSTSSFNFTITASQVVDSAVYFCALSNAGGTSYGKLTFGQGTILTVHP
Vbeta: EAQVTQNPRYLITVTGKKLTVTCSQNMNHEYMSWYRQDPGLGLRQIYYSMNVEVTDKGDVPEGYKVSRKEKRNFPLILESPSPNQTSLYFCASSRRLPPPYGYTFGSGTRLTVV
For B10, in assay [1], the “minimal recognised peptide concentration” value was found to be 10 nM.

B11: TCRCD8-EL8-LM7 #7 (TCR, V domains shown)
Valpha: AQKVTQAQTEISVVEKEDVTLDCVYETRDTTYYLFWYKQPPSGELVFLIRRNSFDEQNEISGRYSWNFQKSTSSFNFTITASQVVDSAVYFCALSESSNTGKLIFGQGTTLQVKP
Vbeta: B10 Vbeta with L97E
With B11, the “minimal recognised peptide concentration” value in assay [1] turned out to be 10 nM.

B12: TCRCD8-NY#102 (TCR, V domains shown)
Valpha: AQSVAQPEDQVNVAEGNPLTVKCTYSVSGNPYLFWYVQYPNRGLQFLLKYITGDNLVKGSYGFEAEFNKSQTSFHLKKPSALVSDSALYFCAVRDIEVVNAGNMLTFGGGTRLMVKP
Vbeta: ETGVTQSPTHLIKTRGQQVTLRCSSQSGHNTVSWYQQALGQGPQFIFQYYREEENGRGNFPPRFSGLQFPNYSSELNVNALELDDSALYLCASTDRVRYEQFFGPGTRLTVL
For the molecule B12, the binding result in [5] is “recognises”.

B13: TCRCD8-MA3#10 (TCR, V domains shown)
Valpha: RKEVEQDPGPFNVPEGATVAFNCTYSNSASQSFFWYRQDCRKEPKLLMSVYSSGNEDGRFTAQLNRASQYISLLIRDSKLSDSATYLCVVNERNSGYALNFGKGTSLLVTP
Vbeta: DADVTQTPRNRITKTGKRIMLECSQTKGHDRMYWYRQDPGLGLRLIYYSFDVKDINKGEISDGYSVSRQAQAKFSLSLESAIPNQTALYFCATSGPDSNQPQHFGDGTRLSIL
In the case of B13, the binding result in assay [3] is reported as “recognises”.

B14: TCRCD8-53-02-NY #109 (TCR, V domains shown)
Valpha: GQQVMQIPQYQHVQEGEDFTTYCNSSTTLSNIQWYKQRPGGHPVFLIQLVKSGEVKKQKRLTFQFGEAKKNSSLHITATQTTDVGTYFCADNAGNMLTFGGGTRLMVKP
Vbeta: GAVVSQHPSWVICKSGTSVKIECRSLDFQATTMFWYRQFPKQSLMLMATSNEGSKATYEQGVEKDKFLINHASLTLSTLTVTSAHPEDSSFYICSARDPGRNYGYTFGSGTRLTVV
Regarding B14, in assay [8], the binding result is listed as “recognises”.

B15: TCRCD8-53-02-NY #110 (TCR, V domains shown)
Valpha: B14 Valpha with A90G
Vbeta: B14 Vbeta with P99E, G100D, N102P
As to B15, the binding result in assay [8] is recorded as “recognises”.

B16: TCRCD8-53-02-NY #107 (TCR, V domains shown)
Valpha: GQNIDQPTEMTATEGAIVQINCTYQTSGFNGLFWYQQHAGEAPTFLSYNVLDGLEEKGRFSSFLSRSKGYSYLLLKELQMKDSASYLCAVRLGDAGNMLTFGGGTRLMVKP
Vbeta: DSGVTQTPKHLITATGQRVTLRCSPRSGDLSVYWYQQSLDQGLQFLIQYYNGEERAKGNILERFSAQQFPDLHSELNLSSLELGDSALYFCASSVGRGMNTEAFFGQGTRLTVV
As for B16, the binding result in [9] is on record as “recognises”.

B17: TCRCD4-MA3#5 (TCR, V domains shown)
Valpha: AQSVTQLGSHVSVSEGALVLLRCNYSSSVPPYLFWYVQYPNQGLQLLLKYTSAATLVKGINGFEAEFKKSETSFHLTKPSAHMSDAAEYFCAVSDGGATNKLIFGTGTLLAVQP
Vbeta: DGGITQSPKYLFRKEGQNVTLSCEQNLNHDAMYWYRQDPGQGLRLIYYSQIVNDFQKGDIAEGYSVSREKKESFPLTVTSAQKNPTAFYLCASSSGGRASFTQYFGPGTRLTVL
Regarding B17, in [10], the binding result is given as “recognises”.
